# Test results reported in article PMC3493473.
# Columns and labels:
# [1] = biological target: T1, ROP18-kinase domain (ROP18-KD) (Toxoplasma gondii) (UniProt Q2PAY2)
# T1 sequence: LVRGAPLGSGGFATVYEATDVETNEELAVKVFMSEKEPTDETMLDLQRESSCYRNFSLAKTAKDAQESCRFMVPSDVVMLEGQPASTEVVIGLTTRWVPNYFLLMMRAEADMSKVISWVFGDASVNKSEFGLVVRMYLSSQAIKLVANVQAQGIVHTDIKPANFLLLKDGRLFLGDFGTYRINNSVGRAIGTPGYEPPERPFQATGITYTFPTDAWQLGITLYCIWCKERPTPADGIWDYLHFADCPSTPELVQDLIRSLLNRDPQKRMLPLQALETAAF
# [2] = biological target: full length ROP18 (ROP18-FL), recombinant (Toxoplasma gondii (type I RH strain))
substance,measurement,setting,value
recombinant ROP5 (rROP5) (from UniProt F2YGR7 25-549) (natural protein),"in vitro 32P kinase activity of ROP18-KD (100 ng) on dMBP with against without rROP5 (200 ng), fold increase (Figure 5E)",[1],12 fold
same,"in vitro 32P kinase activity of ROP18-FL (25 ng) on immunoprecipitated Irgb6 with against without rROP5 (50 ng), fold increase (Figure 5F)",[2],12 fold
